Measurements reported in patent US20140199302A1 (GENERAL HOSPITAL, published 2014).

Experiments:
[1] = target: T1, soluble human hemojuvelin with a HIS-tag (HJV.His) (human, UniProt Q6ZVN8 36-400, limits assumed); experiment: SPR (Biacore), human BMP6 amine-coupled on CM5 chip, one-site univalent fit model; monomeric HJV.His; one-site univalent fit
T1 construct: also called monomeric HJV.His; not shown: HIS-tag
T1 sequence (looked up): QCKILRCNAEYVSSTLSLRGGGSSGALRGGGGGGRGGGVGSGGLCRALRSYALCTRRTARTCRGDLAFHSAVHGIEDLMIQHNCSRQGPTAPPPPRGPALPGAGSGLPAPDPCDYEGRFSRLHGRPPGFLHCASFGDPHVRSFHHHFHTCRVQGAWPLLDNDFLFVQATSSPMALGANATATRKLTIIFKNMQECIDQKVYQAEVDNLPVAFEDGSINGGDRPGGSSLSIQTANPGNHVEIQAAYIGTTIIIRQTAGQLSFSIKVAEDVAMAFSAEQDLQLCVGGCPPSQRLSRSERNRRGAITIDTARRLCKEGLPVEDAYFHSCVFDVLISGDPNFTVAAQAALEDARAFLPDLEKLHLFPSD

[2] = target: T1, soluble human hemojuvelin with a …; experiment: Biacore SPR, HJV.His in solution over human BMP6 immobilized on a CM5 chip by amine coupling; 1:1 binding fit (Chi2 9.32 printed beside it)

Kd [1]: ~33 nM
Kd [2]: 36 nM
B1: human BMP6 (ligand, UniProt P22004 382-513, looked up)
chain: QQSRNRSTQSQDVARVSSASDYNSSELKTACRKHELYVSFQDLGWQDWIIAPKGYAANYCDGECSFPLNAHMNATNHAIVQTLVHLMNPEYVPKPCCAPTKLNAISVLYFDDNSNVILKKYRNMVVRACGCH
notes: also called bone morphogenic protein-6
